Experimental data reported in the nanobody polyreactivity screen of Harvey et al. (2022).

Test: yeast display, Sf9 membrane polyspecificity reagent, FACS + sequencing; frameworks hold sequencing errors
Summary of the method: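 Nanobodies from a synthetic yeast display library (Saccharomyces cerevisiae BJ5465), induced 36–48 hours with galactose, were stained 1 hour at 4 °C with 10% biotinylated, detergent-solubilized Sf9 membrane reagent, enriched on streptavidin microbeads, then FACS-sorted. Anti-HA (expression) and streptavidin (reagent binding) fluorescence set low and high (top ~1%) gates. Polyreactivity labels come from the gate of origin. Genes were colony-PCR amplified, MiSeq 2 × 250 sequenced and filtered by CDR length.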

| Sequence | polyreactivity (PSR sort gate) |
| --- | --- |
| QVQLVESGGGLVQAGGSLRLSCAASGYTFRYNALGWYRQAPGKERELVAAISSSGRTYYADSVKGRFTSSRDNAKNTVDLQMNSLKPDATAVYYCNAGPYAGARYRWGYDYWGQGTQVTVSS | high polyreactivity |
| QVQLVESGGGLVQAGGSLRLSCAASGYTFRYNAMGWYRQAPGKERELVATISRGGNTNYADSVKGRFTISRDNAKNPVYLQMISLKAEDTAVYYCAKVWRTFPYYSWGQGTQVTVSS | high polyreactivity |
| QVQLVESGGGLVQAGGSLRLSCAASGYTFRYYAMGWYRQAPVKERELVARITGRAGSTYYADSVKGRFTISRDNAKNTVYLQMNSLKPEDTAVYYCAASIREGFYWGQGTQVTVSS | high polyreactivity |
| QVQLVESGGGLVQAGGSLRLSCAASGYTFRYYVMGWYRQAPGKERELVAAISFSGGSTYYADSVKGRFTISRDTAKNSGYLQMKSLKPEDTAVYYCAARPGGGKYRGYYYWGQGTQVTVSS | high polyreactivity |
| QVQLVESGGGLVQAGGSLRLSCAASGYTFSDYAMGWYRQAPGKERELVAAISWSGGSTYYADSVKGRFTISRDNAKNTVFLQMNSLKPEDTAVYYCAAKWYAPDLLYYYWGQGTQVTVSS | low polyreactivity |
| QVQLVESGGGLVQAGGSLRLSCAASGYTFSHYAMGWYRQAPGKERELVAGITWSGGSTYYADSVKGRFTISRDYAKNTVYLQMNSLKPEDTSVYYCAAKYYWYYSYSGIPLFDYWGQGTQVTVSS | low polyreactivity |
| QVQLVESGGGLVQAGGSLRLSCAASGYTFSLYAMGWYRQAPGKERELVAAISSGDRTFYADSVKGRFTISRDNAKNTVYLQMNSLKPEDTAVYYCAARRYYVASIYRYDSWGQGTQVTVSS | high polyreactivity |
| QVQLVESGGGLVQAGGSLRLSCAASGYTFSPNDMGWYRKAPGKERELVAAITSSVGSTYYADSVKGRFTISRDNAKNTVYLQMNSLKPEDTAVYYCARTYQVGDSIDDYWGQGTQVTVSS | low polyreactivity |
| QVQLVESGGGLVQAGGSLRLSCAASGYTFSQNAMGWYRQAPGKERELVAAITWSGAGTYYADSVKGRFTISRDNAKNTVYLQMNSLKPEDTAVYYCAAREWTSQDRQHNYWGQGTQVTVSS | low polyreactivity |
| QVQLVESGGGLVQAGGSLRLSCAASGYTFSSNAMGWYRQATGKVSELVATNSSGGSTYYADSVKGRFTISRDNAKNTVYLQMYSLKPEDTAVYYCAADDLGWWFYSGGEDYYYWGQGTQVTVSS | low polyreactivity |
| QVQLVESGGGLVQAGGSLRLSCAASGYTFSSYTMGWYRQAPRKERELVAAITYSGGSTYYADSVKGRFTISRDNAKNTVYLQMNSLKPEDTAVYYCNARGRYAYAYWGQGTQVTVSS | low polyreactivity |
| QVQLVESGGGLVQAGGSLRLSCAASGYTFSVNALGWYRQAPGKERELVATINSSGGGTYYADSVKGRFTISRDNAKYTVYLQMNSLKPEDTAVFYCAADGYWYGDIYPSDYRWYDYWGQGTQVTVSS | low polyreactivity |
| QVQLVESGGGLVQAGGSLRLSCAASGYTFSYYAMGWYRQAPGKERELVARITYSGGSTYYADSVKGRFTISRDNAKNTVYLQMNSLKPEDTAVYFCAARLRYPYWYYNWGQGTQVTVSS | high polyreactivity |
| QVQLVESGGGLVQAGGSLRLSCAASGYTFTGYAMGWYRQAPGKERELVAAITSIGGSTYYADSVKGRFTISRDNAKTTVYLQMNSLKPEDTAVYYCAKDALVIDGGGGYDYWGQGTQVTVSS | low polyreactivity |
| QVQLVESGGGLVQAGGSLRLSCAASGYTFTIYAMGWYRQAPGKQRELVAAITGRGGRTNYADSVKGRFTISRDNAKNTVYLQMNSLKPEDTAVYYCNAVTKVVYHGPYGYDYWGQGTQVTVSS | high polyreactivity |
| QVQLVESGGGLVQAGGSLRLSCAASGYTFTSNDMGWYRQAPGKERELFAAITRVGSTNYADSVKGRFTISRDNAKNTVYLQMNSLKPEDTAVYYCAADLWQRHYLVGFGIRYDYWGQGTQVTVSS | low polyreactivity |
| QVQLVESGGGLVQAGGSLRLSCAASGYTFTVYAMGWYRQAPGKERELVAAITWNGASTYYADSVKARFTISRDNAKKTVYLQMNSLKPEDTAVYNCADPNYFYRDRSRLDYWGQGTQVTVSS | low polyreactivity |
| QVQLVESGGGLVQAGGSLRLSCAASGYTFVLYAMGWYRQAPGKERELVAAIRWSGGTTYYADSVKGRFTISRDNAKNTVYCQMNSLKPEDTAVYYCAGWDYTGNVVTGDYWGQCTQVTVSS | high polyreactivity |
| QVQLVESGGGLVQAGGSLRLSCAASGYTFVNYAMGWYRQAPGKERELVAAITSRGSSTYYADSVKGRFTISRDNAKNTVYLQMKSLKPEDTAVYYCFVHVRNHDYWGQGTQVTVSS | high polyreactivity |
| QVQLVESGGGLVQAGGSLRLSCAASGYTFVTNAMGWYRQAPGKERELVAAITTVGSTNYADSVKGRFTISRDNAKNTVYLQMNSLKPEDTAVYYCNANWYEWYDWGQGTQVTVSS | low polyreactivity |
| QVQLVESGGGLVQAGGSLRLSCAASGYTFYGYAMGWYRQAPGKERELVAAISGSGGSTYYADSVKGRFTISRDNAKNTVYLQMNSLKPEDTAFYYCNKARYAIYRGDGYDYWGQGTQVTVSS | high polyreactivity |
| QVQLVESGGGLVQAGGSLRLSCAASGYTFYIYAMGWYRQAPGKERELVATISSSGGGTYYADSVKGRFTISRDNAKNTVYLQMNSLNPEDTAVYYCNADGWYWQAQGYDYWGQGTQVTVSS | low polyreactivity |

| Sequence | polyreactivity (PSR sort gate) |
| --- | --- |
| QVQLVESGGGLVQAGGSLRLSCAASGYTFYQNAMGWYRQAPGKERELVAAITFRTGSTYYADSVKGRFTISRDNAKNTVYLQMNSLKPEDTAVYYCAATRFLRDWWYGYWGQGTQVTVSS | low polyreactivity |
| QVQLVESGGGLVQAGGSLRLSCAASGYTFYSNAMGSYRQAPGKERELVASIRSRGRSTYYADSVKGRFTISRDNAKNTVYFQMNSLKPEDTAVYYCAALPNTPAVYAYDYWGQGTQVTVSS | low polyreactivity |
| QVQLVESGGGLVQAGGSLRLSCAASGYTFYSYALGWYRQAPGKERELVAAITSGGRTNYADSVKGRFTISRDNAKNTVYLQMNSLKPEDTAVYYCAAYVFRAYGRYYYWGQGTQVTVSS | high polyreactivity |
| QVQLVESGGGLVQAGGSLRLSCAASGYTFYTNAMGWYIQAPGKERELVASIRSRGRSTYYADSVKGRFTISRDNAKNTVYLQMNSLKPEDTAVFYCAALPNIPAVYAYDYWGQGTQVTVSS | low polyreactivity |
| QVQLVESGGGLVQAGGSLRLSCAASGYTFYWNAMGWYRQAPGKEREFVASFSGTSTYYADSVKGRFTISRDNAKNTVYLQMNSLKREDTAVYYCNARLTLGPRKYEYWGPGTQVTVSS | low polyreactivity |
| QVQLVESGGGLVQAGGSLRLSCAASGYTFYYAMGWYRQAPGKERELVAAISAGGGRTYYADSVKGRFTISRDNAKNTVYLQMNSLKPEDTAVYYCNRVYRLTAYGYDYWGQGTQVTVSS | high polyreactivity |
| QVQLVESGGGLVQAGGSLRLSCAASGYTFYYNAMGWYRQATGKERELVAAISWSTSGTYYADSVKGRFTISRDNAKNTVYLQMYSLKPEYTAVYYCAAPSSGTITYDYWGQGTQVTVSS | low polyreactivity |
| QVQLVESGGGLVQAGGSLRLSCAASGYTIIVNAMGWYRQAPGKERELVAAISWSSVSTYYADSVKGRFTISRDNAKNTVYLQMNSLKPEDTAVYYCAAEGYDYSQWFDYWGQGTQVTVSS | high polyreactivity |
| QVQLVESGGGLVQAGGSLRLSCAASGYTIRGYVMGWYRQAPGKERELVAAISASGGRTYYADSVKGRFTISRDYATNTVYLLMNSLKPEDTAVYYCAADSSRTPLEFDYWGQGTQVTVSS | high polyreactivity |
| QVQLVESGGGLVQAGGSLRLSCAASGYTIVSYAMGWERQAPGKERELVASIRWRGGRTYYADSVKGRFTISRDNAKNTVYLQMNSLKPEDTAVYYCAASTYYSPYVAHYGYWGQGTQVTVSS | high polyreactivity |
| QVQLVESGGGLVQAGGSLRLSCAASGYTLDNYAMGWYRQAPGKERELVAGITFSGGSTFYADSVKGRFTISRDNAKNTVYLQMNSLKPEDTAVYYCAADAEFQADHKYGYWGQGSQVTVSS | low polyreactivity |
| QVQLVESGGGLVQAGGSLRLSCAASGYTLSVNAMGWYRQAPGKERELVATIDFGGGSTYYADSVKGRFTISRDNAKNTVYLQMNSLKPEDTAVYYCNTEWTSLSKSSLGGRYDHWGQGTQVTVSS | low polyreactivity |
| QVQLVESGGGLVQAGGSLRLSCAASGYTSRYYAMGWYRQAPGKERELVAAITSGGSTNYADSVKGRFTISRDNAKNTVYLQMNSLKPEDTAVYYCAKGQYPWSYVLQTYIYDYWGQGTQVTVSS | low polyreactivity |
| QVQLVESGGGLVQAGGSLRLSCAASGYVMGWYRQAPGKEREMVAAITRGTSTYYADSVKGRFTISRDNAKNTVYLQLNSLKPEDTAVYFCADRHNTGSSRHYGYWGQGTQVTVSS | low polyreactivity |
| QVQLVESGGGLVQAGGSLRLSCAASGYVYVMGWYRQAPGKERELVAAISKNGGSTYYADSVKGRFTISRYNAKNTVYLQMNSLKPEDTAVYYCAAVSYHKTEYDYWGQGTQVTVSS | high polyreactivity |
| QVQLVESGGGLVQAGGSLRLSCAASGYYAMGWYRQAPGKERELVPAITWSGGTTYYADSVKGRFTISRDNAKNTVYLQMNSLKPEDTAVYYCNADFVRYTRHKKYYYWGQGTQVTVSS | low polyreactivity |
| QVQLVESGGGLVQAGGSLRLSCAASRFTFSYYAMVWYRKAHVKERELVAAISWRGGTPYADSVKGRFTISRDNAKKTVYLQMNSLKPEDTAVYYCNTAYQVYWRGNYWGQGTQVTVSS | high polyreactivity |
| QVQLVESGGGLVQAGGSLRLSCAASRIIFSYNPMGWYRQAPGKERELVAASSYGGRTYYAVSVKGRFTISRDNAKNTVDLQMKSLKPEDTAVYYCATRSPHRLYGDYYDYWGLGTQVTVSS | high polyreactivity |
| QVQLVESGGGLVQAGGSLRLSCAASRIIFYAYAMRWYRQAPGNERELVAAMSWSGGSTYYADSVKGRYTISRDNAKNTFYLQMNSLKPEDTAVYYCAAYFNIYGLEYDYWGQGTQVTVSS | high polyreactivity |
| QVQLVESGGGLVQAGGSLRLSCAASRITFIYYAMGSYRQAPGKERELVAAINRSGGSTYYADSVKGRFTISRDIAKNTVYLQMNSLKPEDTAVYYCNADRSYWYIHSEYEYWGQGTQVTVSS | high polyreactivity |
| QVQLVESGGGLVQAGGSLRLSCAASRNNYPYYAMGWSRQEPGKERELVAAISGSGERTYYADSVKGRFTISRDNAKNTVFLQMNSLKPEDTAVYYCAAYRRYYGWYEYWGQGTLVTVSS | high polyreactivity |
